Source: patent US20200173960A1
pKd: −log10 of the molar value.

Key:
trastuzumab [1] = test: cell-based or functional assay
trastuzumab [2] = test: method not stated; affinity listed for the purchased ADA
trastuzumab [3] = test: ELISA Kit A (anti-idiotype capture) of trastuzumab 50 ug/mL pre-bound with ADA; trastuzumab:ADA 1:1
trastuzumab [4] = test: ELISA Kit A (anti-idiotype capture) of trastuzumab 50 ug/mL pre-bound with ADA; trastuzumab:ADA 5:1
trastuzumab [5] = test: ELISA Kit A (anti-idiotype capture) of trastuzumab 0.5 ug/mL pre-bound with ADA; trastuzumab:ADA 1:1
trastuzumab [6] = test: ELISA Kit A (anti-idiotype capture) of trastuzumab 0.5 ug/mL pre-bound with ADA; trastuzumab:ADA 1:2
trastuzumab [7] = test: ELISA Kit A (anti-idiotype capture) of trastuzumab 0.5 ug/mL pre-bound with ADA; trastuzumab:ADA 1:5
trastuzumab [8] = test: ELISA Kit A (anti-idiotype capture) of trastuzumab 0.5 ug/mL pre-bound with ADA; trastuzumab:ADA 5:1
trastuzumab [9] = test: ELISA Kit A (anti-idiotype capture) of trastuzumab 50 ug/mL pre-bound with ADA; trastuzumab:ADA 10:1
trastuzumab [10] = test: ELISA Kit A (anti-idiotype capture) of trastuzumab 0.5 ug/mL pre-bound with ADA; trastuzumab:ADA 10:1
trastuzumab [11] = test: ELISA Kit A (anti-idiotype capture) of trastuzumab 0.5 ug/mL pre-bound with ADA; trastuzumab:ADA 1:10
trastuzumab [12] = test: ELISA Kit A (anti-idiotype capture) of trastuzumab 0.5 ug/mL pre-bound with ADA; trastuzumab:ADA 1:50
trastuzumab [13] = test: ELISA Kit A (anti-idiotype capture) of trastuzumab 50 ug/mL pre-bound with ADA; trastuzumab:ADA 100:1
trastuzumab [14] = test: ELISA Kit A (anti-idiotype capture) of trastuzumab 0.5 ug/mL pre-bound with ADA; trastuzumab:ADA 1:100
trastuzumab [15] = test: ELISA Kit B (HER2 capture, anti-human IgG Fc detection) of trastuzumab 0.5 ug/mL pre-bound with ADA; trastuzumab:ADA 1:1
trastuzumab [16] = test: ELISA Kit B (HER2 capture, anti-human IgG Fc detection) of trastuzumab 0.5 ug/mL pre-bound with ADA; trastuzumab:ADA 10:1
trastuzumab [17] = test: ELISA Kit B (HER2 capture, anti-human IgG Fc detection) of trastuzumab 0.5 ug/mL pre-bound with ADA; trastuzumab:ADA 1:10
trastuzumab [18] = test: ELISA Kit B (HER2 capture, anti-human IgG Fc detection) of trastuzumab 0.5 ug/mL pre-bound with ADA; trastuzumab:ADA 1:100

| Substance | Accuracy (%) nSMOL; trastuzumab 0.5 ug/mL; trastuzumab:ADA 1:1 (trastuzumab [1]) | Accuracy (%) nSMOL; trastuzumab 0.5 ug/mL; trastuzumab:ADA 1:2 (trastuzumab [1]) | Accuracy (%) nSMOL; trastuzumab 0.5 ug/mL; trastuzumab:ADA 1:5 (trastuzumab [1]) | Accuracy (%) nSMOL; trastuzumab 0.5 ug/mL; trastuzumab:ADA 1:10 (trastuzumab [1]) | Accuracy (%) nSMOL; trastuzumab 0.5 ug/mL; trastuzumab:ADA 1:50 (trastuzumab [1]) | Accuracy (%) nSMOL; trastuzumab 0.5 ug/mL; trastuzumab:ADA 1:100 (trastuzumab [1]) | Accuracy (%) nSMOL; trastuzumab 0.5 ug/mL; trastuzumab:ADA 5:1 (trastuzumab [1]) | Accuracy (%) nSMOL; trastuzumab 0.5 ug/mL; trastuzumab:ADA 10:1 (trastuzumab [1]) | Accuracy (%) nSMOL; trastuzumab 50 ug/mL; trastuzumab:ADA 1:1 (trastuzumab [1]) | Accuracy (%) nSMOL; trastuzumab 50 ug/mL; trastuzumab:ADA 5:1 (trastuzumab [1]) | Accuracy (%) nSMOL; trastuzumab 50 ug/mL; trastuzumab:ADA 10:1 (trastuzumab [1]) | Accuracy (%) nSMOL; trastuzumab 50 ug/mL; trastuzumab:ADA 100:1 (trastuzumab [1]) | Accuracy (%) nSMOL; trastuzumab first immobilized on Protein A; trastuzumab:ADA 1:1 (trastuzumab [1]) | Accuracy (%) nSMOL; trastuzumab first immobilized on Protein A; trastuzumab:ADA 5:1 (trastuzumab [1]) | Accuracy (%) nSMOL; trastuzumab first immobilized on Protein A; trastuzumab:ADA 10:1 (trastuzumab [1]) | Accuracy (%) nSMOL; trastuzumab first immobilized on Protein A; trastuzumab:ADA 100:1 (trastuzumab [1]) | Accuracy (%) ELISA (trastuzumab [3]) | Accuracy (%) ELISA (trastuzumab [4]) | Accuracy (%) ELISA (trastuzumab [5]) | Accuracy (%) ELISA (trastuzumab [8]) | further results |
| --- | --- | --- | --- | --- | --- | --- | --- | --- | --- | --- | --- | --- | --- | --- | --- | --- | --- | --- | --- | --- | --- |
| HCA168 (Fab) | 106% | 102% | 93% | 107% | 86% | 84.8% | 113% | 109% | 92.9% | 92.8% | 102% | 89.5% | 94.5% | 94.3% | 101% | 107% | 81.4% | 66.8% | 84.1% | 102% | pKd (trastuzumab [2]): 10.70; Accuracy (%) ELISA (trastuzumab [6]): 82.1%; Accuracy (%) ELISA (trastuzumab [7]): 67.7%; Accuracy (%) ELISA (trastuzumab [9]): 84.4%; Accuracy (%) ELISA (trastuzumab [10]): 95.2%; Accuracy (%) ELISA (trastuzumab [11]): 62.2%; Accuracy (%) ELISA (trastuzumab [12]): 64.5%; Accuracy (%) ELISA (trastuzumab [13]): 84.9%; Accuracy (%) ELISA (trastuzumab [14]): 72.2%; Accuracy (%) Kit B (trastuzumab [15]): 42.4%; Accuracy (%) Kit B (trastuzumab [16]): 95.5%; Accuracy (%) Kit B (trastuzumab [17]): 6.4%; Accuracy (%) Kit B (trastuzumab [18]): 3.32% |
| HCA176 (antibody) | 99.9% | 93.4% | 101% | 89.1% | 86.6% | 88.7% | 93.3% | 106% | 94.8% | 96.7% | 104% | 94.7% | 102% | 98.3% | 102% | 93.5% | 57.3% | 72.1% | 78.7% | 98% | pKd (trastuzumab [2]): 9.40; Accuracy (%) ELISA (trastuzumab [6]): 75.2%; Accuracy (%) ELISA (trastuzumab [7]): 75.4%; Accuracy (%) ELISA (trastuzumab [9]): 69.6%; Accuracy (%) ELISA (trastuzumab [10]): 116%; Accuracy (%) ELISA (trastuzumab [11]): 76.6%; Accuracy (%) ELISA (trastuzumab [12]): 73.1%; Accuracy (%) ELISA (trastuzumab [13]): 84.6%; Accuracy (%) ELISA (trastuzumab [14]): 82.6%; Accuracy (%) Kit B (trastuzumab [15]): 36.1%; Accuracy (%) Kit B (trastuzumab [16]): 101%; Accuracy (%) Kit B (trastuzumab [17]): 3.93%; Accuracy (%) Kit B (trastuzumab [18]): 11.7% |
| HCA177 (antibody) | 96.1% | 84.4% | 78.7% | 81% | 89.5% | 74.1% | 98.7% | 98.4% | 88% | 99.4% | 103% | 96.2% | 89.2% | 97.3% | 103% | 94.7% | 84.5% | 92% | 110% | 112% | inhibitory effect on quantification values (nSMOL), ratio 1:1 (trastuzumab [1]): 10%; pKd (trastuzumab [2]): 10.70; Accuracy (%) ELISA (trastuzumab [6]): 99.9%; Accuracy (%) ELISA (trastuzumab [7]): 99.4%; Accuracy (%) ELISA (trastuzumab [9]): 85.3%; Accuracy (%) ELISA (trastuzumab [10]): 103%; Accuracy (%) ELISA (trastuzumab [11]): 108%; Accuracy (%) ELISA (trastuzumab [12]): 112%; Accuracy (%) ELISA (trastuzumab [13]): 98%; Accuracy (%) ELISA (trastuzumab [14]): 106%; Accuracy (%) Kit B (trastuzumab [15]): 46%; Accuracy (%) Kit B (trastuzumab [16]): 97.4%; Accuracy (%) Kit B (trastuzumab [17]): 0.962% |
| MAB11130 (antibody) | 102% | 97.8% | 108% | 109% | 115% | 100% | 103% | 105% | 102% | 105% | 110% | 102% | 96.2% | 108% | 105% | 109% | 2.75% | 72.8% | 0.632% | 96.9% | Accuracy (%) ELISA (trastuzumab [9]): 74.2%; Accuracy (%) ELISA (trastuzumab [10]): 102%; Accuracy (%) ELISA (trastuzumab [13]): 83.5%; Accuracy (%) Kit B (trastuzumab [15]): 3.69%; Accuracy (%) Kit B (trastuzumab [16]): 88.9%; Accuracy (%) Kit B (trastuzumab [17]): 1.36%; Accuracy (%) Kit B (trastuzumab [18]): 4.49% |
